Test results published in patent US10562947B2, “Compositions and methods for preventing or treating diseases, conditions or processes characterized by aberrant fibroblast proliferation and extracellular matrix deposition” (MOERAE MATRIX, INC., priority 2011, dated 2020).

Assays:
Test in all cases: Kinase Profiling Assay
Type in all cases: biochemical
Settings in all cases: 100 μM peptide
Met(D1246N)(h) = Met(D1246N)(h) (Homo sapiens, UniProt P08581, D1228N)
Summary of the method: (§1)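 Duplicate activity readings per kinase; peptide inhibitors of MK2 profiled against 266 human kinases for selectivity.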

IR(h) = biological target: T1, IR(h) (Homo sapiens, UniProt P06213)
T1 construct: purchased Millipore
Summary of the method: as §1

eEF-2K(h) = eEF-2K(h) (Homo sapiens, UniProt O00418)
Summary of the method: as §1

NLK(h) = biological target: T2, NLK(h) (Homo sapiens, UniProt Q9UBE8)
T2 sequence (Q9UBE8 1-527): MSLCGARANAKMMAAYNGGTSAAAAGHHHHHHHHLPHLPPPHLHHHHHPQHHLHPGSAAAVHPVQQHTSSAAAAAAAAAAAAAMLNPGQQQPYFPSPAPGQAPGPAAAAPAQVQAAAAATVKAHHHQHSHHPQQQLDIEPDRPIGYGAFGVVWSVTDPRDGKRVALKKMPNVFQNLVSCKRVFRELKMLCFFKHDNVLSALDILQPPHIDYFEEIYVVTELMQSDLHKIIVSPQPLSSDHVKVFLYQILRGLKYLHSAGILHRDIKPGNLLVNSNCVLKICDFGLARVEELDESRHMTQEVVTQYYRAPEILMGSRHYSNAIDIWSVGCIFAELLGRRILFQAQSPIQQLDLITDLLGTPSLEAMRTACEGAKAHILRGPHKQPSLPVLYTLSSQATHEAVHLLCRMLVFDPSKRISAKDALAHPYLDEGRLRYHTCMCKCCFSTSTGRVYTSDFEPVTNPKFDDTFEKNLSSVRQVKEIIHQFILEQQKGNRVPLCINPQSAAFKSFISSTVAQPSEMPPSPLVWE
Summary of the method: as §1

Fms(h) = Fms(h) (Homo sapiens, UniProt P07333)
Summary of the method: as §1

BTK(R28H)(h) = BTK(R28H)(h) (Homo sapiens, UniProt Q06187, R28H)
Summary of the method: as §1

Met(Y1248D)(h) = Met(Y1248D)(h) (Homo sapiens, UniProt P08581, Y1230D)
Summary of the method: as §1

PASK(h) = PASK(h) (Homo sapiens, UniProt Q96RG2)
Summary of the method: as §1

MEK1(h) = MEK1(h) (Homo sapiens, UniProt Q02750)
Summary of the method: as §1

PDK1(h) = biological target: T3, PDK1(h) (Homo sapiens, UniProt O15530)
T3 sequence (O15530 1-556): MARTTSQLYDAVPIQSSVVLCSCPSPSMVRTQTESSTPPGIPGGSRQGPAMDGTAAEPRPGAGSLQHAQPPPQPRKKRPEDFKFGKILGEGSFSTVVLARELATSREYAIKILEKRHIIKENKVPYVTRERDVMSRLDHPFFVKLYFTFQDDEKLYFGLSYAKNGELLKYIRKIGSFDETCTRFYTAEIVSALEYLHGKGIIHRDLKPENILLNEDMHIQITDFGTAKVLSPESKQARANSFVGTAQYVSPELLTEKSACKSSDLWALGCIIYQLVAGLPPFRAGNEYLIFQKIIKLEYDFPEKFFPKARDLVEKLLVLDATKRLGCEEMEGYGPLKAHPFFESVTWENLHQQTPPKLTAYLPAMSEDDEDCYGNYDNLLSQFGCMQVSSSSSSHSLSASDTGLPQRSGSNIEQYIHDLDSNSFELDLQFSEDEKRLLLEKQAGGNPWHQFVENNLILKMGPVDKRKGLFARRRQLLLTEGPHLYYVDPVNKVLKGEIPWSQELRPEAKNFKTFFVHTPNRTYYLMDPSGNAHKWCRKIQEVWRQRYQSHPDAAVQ
Summary of the method: as §1

PKD2(h) = biological target: T4, PKD2(h) (Homo sapiens, UniProt Q9BZL6)
T4 construct: purchased Millipore (IC50 Profiler Express service)
T4 sequence (Q9BZL6 1-878): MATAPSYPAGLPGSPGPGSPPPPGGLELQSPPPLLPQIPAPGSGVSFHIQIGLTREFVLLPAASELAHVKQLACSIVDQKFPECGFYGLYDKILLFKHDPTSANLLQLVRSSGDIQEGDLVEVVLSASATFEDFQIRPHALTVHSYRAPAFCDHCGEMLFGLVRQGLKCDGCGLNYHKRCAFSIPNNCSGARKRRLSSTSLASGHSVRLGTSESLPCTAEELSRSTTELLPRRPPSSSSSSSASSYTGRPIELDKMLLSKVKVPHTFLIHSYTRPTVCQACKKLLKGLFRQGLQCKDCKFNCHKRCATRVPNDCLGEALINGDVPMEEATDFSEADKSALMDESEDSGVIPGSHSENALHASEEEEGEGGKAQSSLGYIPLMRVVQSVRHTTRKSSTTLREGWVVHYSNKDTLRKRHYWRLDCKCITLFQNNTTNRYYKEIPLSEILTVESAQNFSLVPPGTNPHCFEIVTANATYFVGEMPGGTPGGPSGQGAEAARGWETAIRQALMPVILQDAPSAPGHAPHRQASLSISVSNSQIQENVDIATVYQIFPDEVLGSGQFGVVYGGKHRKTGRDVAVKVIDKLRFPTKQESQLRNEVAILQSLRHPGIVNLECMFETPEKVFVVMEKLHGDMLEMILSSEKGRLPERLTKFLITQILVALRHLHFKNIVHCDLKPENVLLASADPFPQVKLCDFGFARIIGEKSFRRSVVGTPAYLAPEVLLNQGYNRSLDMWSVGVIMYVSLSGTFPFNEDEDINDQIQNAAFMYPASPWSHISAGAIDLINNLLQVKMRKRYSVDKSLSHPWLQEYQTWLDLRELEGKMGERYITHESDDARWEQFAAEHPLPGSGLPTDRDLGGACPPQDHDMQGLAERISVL
Summary of the method: as §1

DAPK2(h) = DAPK2(h) (Homo sapiens, UniProt Q9UIK4)
Summary of the method: as §1

BTK(R28H)(h), sequence (Q06187 whole entry R28H): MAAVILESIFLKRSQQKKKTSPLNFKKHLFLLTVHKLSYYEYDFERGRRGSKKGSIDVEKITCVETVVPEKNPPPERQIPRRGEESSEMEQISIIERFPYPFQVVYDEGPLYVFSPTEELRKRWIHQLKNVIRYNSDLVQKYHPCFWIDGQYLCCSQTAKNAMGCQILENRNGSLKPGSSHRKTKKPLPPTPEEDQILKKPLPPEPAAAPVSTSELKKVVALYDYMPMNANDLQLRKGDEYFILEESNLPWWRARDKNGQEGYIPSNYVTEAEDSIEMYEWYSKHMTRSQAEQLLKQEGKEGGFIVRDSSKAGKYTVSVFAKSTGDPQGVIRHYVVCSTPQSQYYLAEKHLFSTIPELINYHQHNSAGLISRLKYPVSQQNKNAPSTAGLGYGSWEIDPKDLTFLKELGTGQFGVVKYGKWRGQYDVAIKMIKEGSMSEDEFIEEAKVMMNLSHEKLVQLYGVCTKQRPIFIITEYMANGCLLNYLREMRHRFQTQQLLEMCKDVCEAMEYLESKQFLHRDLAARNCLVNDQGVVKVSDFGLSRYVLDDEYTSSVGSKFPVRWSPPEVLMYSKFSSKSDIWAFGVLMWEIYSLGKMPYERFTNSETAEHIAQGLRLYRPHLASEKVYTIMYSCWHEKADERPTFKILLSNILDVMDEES
DAPK2(h), sequence (Q9UIK4 whole entry): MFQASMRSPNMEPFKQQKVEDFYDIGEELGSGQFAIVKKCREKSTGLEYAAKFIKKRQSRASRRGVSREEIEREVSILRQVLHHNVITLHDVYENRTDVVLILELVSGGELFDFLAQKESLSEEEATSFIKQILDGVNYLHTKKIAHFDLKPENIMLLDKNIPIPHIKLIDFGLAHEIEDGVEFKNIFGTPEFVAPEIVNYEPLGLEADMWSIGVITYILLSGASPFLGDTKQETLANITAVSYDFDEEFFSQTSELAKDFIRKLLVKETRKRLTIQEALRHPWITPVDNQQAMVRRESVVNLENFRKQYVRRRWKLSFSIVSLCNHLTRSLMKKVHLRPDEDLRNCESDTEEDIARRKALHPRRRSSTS
PASK(h), sequence (Q96RG2 whole entry): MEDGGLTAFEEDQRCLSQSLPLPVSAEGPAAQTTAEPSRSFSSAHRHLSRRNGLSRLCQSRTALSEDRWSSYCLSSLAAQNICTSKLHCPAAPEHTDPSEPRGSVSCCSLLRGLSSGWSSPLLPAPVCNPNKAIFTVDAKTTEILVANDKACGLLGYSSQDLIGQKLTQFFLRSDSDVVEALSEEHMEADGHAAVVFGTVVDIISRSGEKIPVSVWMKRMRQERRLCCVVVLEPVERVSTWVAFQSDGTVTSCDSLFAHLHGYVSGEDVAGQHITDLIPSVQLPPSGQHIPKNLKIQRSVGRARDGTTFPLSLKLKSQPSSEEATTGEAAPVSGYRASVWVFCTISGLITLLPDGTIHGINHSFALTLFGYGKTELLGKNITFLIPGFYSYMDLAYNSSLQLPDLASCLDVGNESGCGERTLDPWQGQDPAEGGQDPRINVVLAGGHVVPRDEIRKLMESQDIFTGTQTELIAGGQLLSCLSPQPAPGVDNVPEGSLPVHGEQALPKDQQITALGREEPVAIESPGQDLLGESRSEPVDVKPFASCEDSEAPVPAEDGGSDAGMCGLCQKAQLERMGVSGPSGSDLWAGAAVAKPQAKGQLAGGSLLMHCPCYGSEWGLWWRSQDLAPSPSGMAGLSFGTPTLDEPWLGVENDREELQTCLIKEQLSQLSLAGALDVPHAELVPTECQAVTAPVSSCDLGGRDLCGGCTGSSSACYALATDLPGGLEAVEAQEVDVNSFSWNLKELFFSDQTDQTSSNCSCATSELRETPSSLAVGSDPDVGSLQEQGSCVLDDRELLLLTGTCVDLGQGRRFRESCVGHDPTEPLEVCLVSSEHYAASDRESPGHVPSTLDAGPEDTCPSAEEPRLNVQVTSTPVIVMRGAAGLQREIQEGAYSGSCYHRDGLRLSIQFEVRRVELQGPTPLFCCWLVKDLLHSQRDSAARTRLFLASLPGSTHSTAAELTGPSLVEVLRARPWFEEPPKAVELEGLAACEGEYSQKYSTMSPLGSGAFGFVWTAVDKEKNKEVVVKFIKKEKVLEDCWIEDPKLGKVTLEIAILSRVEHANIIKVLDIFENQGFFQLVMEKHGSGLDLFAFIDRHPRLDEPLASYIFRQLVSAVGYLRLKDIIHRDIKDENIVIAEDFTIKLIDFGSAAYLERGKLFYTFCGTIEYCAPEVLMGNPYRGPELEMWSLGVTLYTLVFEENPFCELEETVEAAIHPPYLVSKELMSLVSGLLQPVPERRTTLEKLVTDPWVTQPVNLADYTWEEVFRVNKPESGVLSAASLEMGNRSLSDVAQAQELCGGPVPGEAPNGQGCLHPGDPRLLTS

Row | Sequence | Met(D1246N)(h) % activity (Met(D1246N)(h)) | IR(h) % activity (IR(h)) | eEF-2K(h) % activity (eEF-2K(h)) | NLK(h) % activity (NLK(h)) | Fms(h) % activity (Fms(h)) | BTK(R28H)(h) % activity (BTK(R28H)(h)) | Met(Y1248D)(h) % activity (Met(Y1248D)(h)) | PASK(h) % activity (PASK(h)) | MEK1(h) % activity (MEK1(h)) | PDK1(h) % activity (PDK1(h)) | PKD2(h) % activity (PKD2(h)) | DAPK2(h) % activity (DAPK2(h))
1 | KAFAKLAARLYRKALARQLGVAA [MMI-0400] | 31% | 85% | 43% | 90% | 37% | 24% | 31% | 28% | 77% | 159% | 25% | 16%
2 | YARAAARQARAKALNRQLGVA (Mammalian) [MMI-0200] | 149% | 90% |  |  | 92% |  | 118% | 60% |  | 143% | 78% | 92%
3 | FAKLAARLYRKALARQLGVAA [MMI-0300] | 82% | 96% | 91% | 87% | 45% | 74% |  | 29% | 77% | 135% | 33% | 32%
4 | HRRIKAWLKKIKALARQLGVAA (Mammalian) [MMI-0500] | 90% | 95% | 43% | 19% | 14% | 10% | 218% | 9% | 21% | 178% | 10% | 3%
